Assay results: patent US20180362668A1 (JIANGSU ALPHAMAB BIOPHARMACEUTICALS, published 2018)

Molecular target: the molecule itself
Experiment: non-reducing SDS-PAGE densitometry of Protein A-purified co-transfection product; chain A:chain B vectors 1:1
Excerpt: The cotransfection ratio of recombinant expression vector of the chain A to that of the chain B was 1:1.

| Protein | ScFv-Fc homodimer (%) | Proportion of Fc homodimer (%) |
| --- | --- | --- |
| ScFv-Fc fusion protein chain A with Y349C + T366W + K409A + L368E (Fc fusion, Positions are EU index; also called combination 9 chain A) EVQLLESGGGVVQPGRSLRLSCIASGFTFSSYPMTWVRQAPGKGLEWVASISYDGSYKYKADSMKGRLTISRDNSKNTLYLEMNSLTAEDTAVYYCARTAFFNAYDFWGQGTLVTVSSASTKGPSVGGGGSGGGGSEIVMTQSPATLSVSPGERATLSCRASQSVRSNLAWYQQKPGQAPRLLIYAASTRATGIPARFSGSGSGTEFTLTISSLQSEDFAVYYCQQYNEWFRTSGQGTKVEIKRDKTHTCPPCPAPELLGGPSVFLFPPKPKDTLMISRTPEVTCVVVDVSHENPEVKFNWYVDGVEVHNAKTKPREEQYNSTYRVVSVLTVLHQDWLNGKEYKCKVSNKALPAPIEKTISKAKGQPREPQVCTLPPSRDELTKNQVSLWCEVKGFYPSDIAVEWESNGQPENNYKTTPPVLDSDGSFFLYSALTVDKSRWQQGNVFSCSVMHEALHNHYTQKSLSLSPGK | 39% |  |
| ScFv-Fc fusion protein chain A with Y349C + T366W + F405K + Q347R (Fc fusion, Positions are EU index; also called combination 6 chain A) EVQLLESGGGVVQPGRSLRLSCIASGFTFSSYPMTWVRQAPGKGLEWVASISYDGSYKYKADSMKGRLTISRDNSKNTLYLEMNSLTAEDTAVYYCARTAFFNAYDFWGQGTLVTVSSASTKGPSVGGGGSGGGGSEIVMTQSPATLSVSPGERATLSCRASQSVRSNLAWYQQKPGQAPRLLIYAASTRATGIPARFSGSGSGTEFTLTISSLQSEDFAVYYCQQYNEWFRTSGQGTKVEIKRDKTHTCPPCPAPELLGGPSVFLFPPKPKDTLMISRTPEVTCVVVDVSHENPEVKFNWYVDGVEVHNAKTKPREEQYNSTYRVVSVLTVLHQDWLNGKEYKCKVSNKALPAPIEKTISKAKGQPREPRVCTLPPSRDELTKNQVSLWCLVKGFYPSDIAVEWESNGQPENNYKTTPPVLDSDGSFKLYSKLTVDKSRWQQGNVFSCSVMHEALHNHYTQKSLSLSPGK | 14% |  |
| ScFv-Fc fusion protein chain A with Y349C + T366W + F405K + K360E + Q347E (Fc fusion, Positions are EU index; also called combination 5 chain A) EVQLLESGGGVVQPGRSLRLSCIASGFTFSSYPMTWVRQAPGKGLEWVASISYDGSYKYKADSMKGRLTISRDNSKNTLYLEMNSLTAEDTAVYYCARTAFFNAYDFWGQGTLVTVSSASTKGPSVGGGGSGGGGSEIVMTQSPATLSVSPGERATLSCRASQSVRSNLAWYQQKPGQAPRLLIYAASTRATGIPARFSGSGSGTEFTLTISSLQSEDFAVYYCQQYNEWFRTSGQGTKVEIKRDKTHTCPPCPAPELLGGPSVFLFPPKPKDTLMISRTPEVTCVVVDVSHENPEVKFNWYVDGVEVHNAKTKPREEQYNSTYRVVSVLTVLHQDWLNGKEYKCKVSNKALPAPIEKTISKAKGQPREPEVCTLPPSRDELTENQVSLWCLVKGFYPSDIAVEWESNGQPENNYKTTPPVLDSDGSFKLYSKLTVDKSRWQQGNVFSCSVMHEALHNHYTQKSLSLSPGK | 14% |  |
| ScFv-Fc fusion protein chain A with Y349C + T366W + K409A + K360E + Q347E (Fc fusion, Positions are EU index; also called combination 7 chain A) EVQLLESGGGVVQPGRSLRLSCIASGFTFSSYPMTWVRQAPGKGLEWVASISYDGSYKYKADSMKGRLTISRDNSKNTLYLEMNSLTAEDTAVYYCARTAFFNAYDFWGQGTLVTVSSASTKGPSVGGGGSGGGGSEIVMTQSPATLSVSPGERATLSCRASQSVRSNLAWYQQKPGQAPRLLIYAASTRATGIPARFSGSGSGTEFTLTISSLQSEDFAVYYCQQYNEWFRTSGQGTKVEIKRDKTHTCPPCPAPELLGGPSVFLFPPKPKDTLMISRTPEVTCVVVDVSHENPEVKFNWYVDGVEVHNAKTKPREEQYNSTYRVVSVLTVLHQDWLNGKEYKCKVSNKALPAPIEKTISKAKGQPREPEVCTLPPSRDELTENQVSLWCLVKGFYPSDIAVEWESNGQPENNYKTTPPVLDSDGSFFLYSALTVDKSRWQQGNVFSCSVMHEALHNHYTQKSLSLSPGK | 24% |  |
| Fc protein chain B with D356C + T366S + L368A + Y407V + K360E + Q347E (other, also called combination 6 chain B) DKTHTCPPCPAPELLGGPSVFLFPPKPKDTLMISRTPEVTCVVVDVSHEDPEVKFNWYVDGVEVHNAKTKPREEQYNSTYRVVSVLTVLHQDWLNGKEYKCKVSNKALPAPIEKTISKAKGQPREPEVYTLPPSRCELTENQVSLSCAVKGFYPSDIAVEWESNGQPENNYKTTPPVLDSDGSFFLVSKLTVDKSRWQQGNVFSCSVMHEALHNHYTQKSLSLSPGK |  | 24% |
